Results from US20160244525A1 (Genentech, published 2016).

T1: FGFR4-6xHis (human, UniProt P22455 22-369, limits assumed)
T1 sequence: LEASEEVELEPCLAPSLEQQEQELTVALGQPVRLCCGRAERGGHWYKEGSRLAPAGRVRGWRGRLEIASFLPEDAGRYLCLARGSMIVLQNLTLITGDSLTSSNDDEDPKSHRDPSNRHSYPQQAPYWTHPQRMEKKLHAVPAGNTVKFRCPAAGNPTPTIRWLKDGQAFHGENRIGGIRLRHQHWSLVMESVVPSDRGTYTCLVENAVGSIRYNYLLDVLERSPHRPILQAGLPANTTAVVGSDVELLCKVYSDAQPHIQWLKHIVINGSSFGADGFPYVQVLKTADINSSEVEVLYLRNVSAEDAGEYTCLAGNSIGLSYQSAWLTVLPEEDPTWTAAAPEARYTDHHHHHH

T2: FGFR3-IIIc (human, UniProt P22607 23-375, limits assumed)
T2 construct: also called human FGFR3-IIIc
T2 sequence: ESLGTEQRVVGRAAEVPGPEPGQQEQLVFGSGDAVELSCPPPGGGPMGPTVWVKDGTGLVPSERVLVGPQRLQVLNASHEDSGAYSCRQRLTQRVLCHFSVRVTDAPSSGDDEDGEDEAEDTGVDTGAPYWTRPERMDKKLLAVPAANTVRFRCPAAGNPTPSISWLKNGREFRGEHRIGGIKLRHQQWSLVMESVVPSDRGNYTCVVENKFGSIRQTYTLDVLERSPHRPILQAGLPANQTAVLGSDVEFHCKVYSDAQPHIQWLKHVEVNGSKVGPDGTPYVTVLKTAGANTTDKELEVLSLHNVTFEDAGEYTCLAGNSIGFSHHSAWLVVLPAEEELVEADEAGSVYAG

T3: FGFR1-IIIb (human, UniProt P11362-19 22-376, limits assumed)
T3 construct: Soluble FGFR antigen in SPR
T3 sequence (looked up): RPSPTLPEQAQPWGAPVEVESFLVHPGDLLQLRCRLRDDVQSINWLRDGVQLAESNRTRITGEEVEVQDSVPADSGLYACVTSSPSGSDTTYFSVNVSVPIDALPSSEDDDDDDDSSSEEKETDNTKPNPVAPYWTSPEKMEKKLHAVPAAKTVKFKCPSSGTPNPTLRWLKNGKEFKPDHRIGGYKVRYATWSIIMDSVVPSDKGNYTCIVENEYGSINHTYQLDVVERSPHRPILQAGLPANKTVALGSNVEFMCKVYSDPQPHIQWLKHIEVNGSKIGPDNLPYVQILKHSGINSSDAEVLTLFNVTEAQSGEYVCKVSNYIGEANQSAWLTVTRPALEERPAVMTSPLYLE

T4: FGFR4-Fc (human, UniProt P22455 22-369)
T4 sequence (looked up): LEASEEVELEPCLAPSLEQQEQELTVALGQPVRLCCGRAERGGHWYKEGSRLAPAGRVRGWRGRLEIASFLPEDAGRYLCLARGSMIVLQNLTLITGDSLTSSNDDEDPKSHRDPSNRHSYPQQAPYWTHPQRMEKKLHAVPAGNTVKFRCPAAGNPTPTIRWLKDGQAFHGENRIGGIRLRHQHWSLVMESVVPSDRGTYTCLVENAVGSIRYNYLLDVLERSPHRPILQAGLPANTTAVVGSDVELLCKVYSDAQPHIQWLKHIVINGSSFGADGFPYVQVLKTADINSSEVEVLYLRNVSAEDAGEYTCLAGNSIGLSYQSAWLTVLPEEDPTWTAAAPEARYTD


Experiments:
FGFR4-6xHis = molecular target: T1, FGFR4-6xHis; experiment: SPR, IgG captured, FGFR4-6xHis flowed
Method: (§1) A saturated amount of anti-human Fc monoclonal antibody was immobilized onto a CM5 biosensor chip by following the product instructions. […] FGFR antigens of various concentrations were injected at a flow rate 30 μL/min. After each binding cycle, flow cells were regenerated using 3M MgCl₂. Kinetic analyses were performed using the T100 evaluation software to obtain the kinetic and affinity constants.
(§2) 1.3 variants were determined by capturing FGFR4-Fc and flowing the antibody Fab fragments (Table 12).

FGFR3-IIIc = molecular target: T2, FGFR3-IIIc; experiment: surface plasmon resonance (Biacore)
FGFR1-IIIb = molecular target: T3, FGFR1-IIIb; experiment: SPR
Method: as §1, §2

FGFR2-IIIc = molecular target: T5, FGFR2-IIIc (human, UniProt P21802 22-377); experiment: SPR
T5 construct: also called human FGFR2-IIIc; FGFR2-IIIc-His
Method: as §1, §2

FGFR4-Fc = molecular target: T4, FGFR4-Fc; experiment: SPR, FGFR4-Fc captured, Fab flowed; FGFR4-Fc captured, Fab flowed
Method: Later, the KD for the 2B. 1.3 variants were determined by capturing FGFR4-Fc and flowing the antibody Fab fragments (Table 12).

T5 sequence (P21802 22-377 limits assumed): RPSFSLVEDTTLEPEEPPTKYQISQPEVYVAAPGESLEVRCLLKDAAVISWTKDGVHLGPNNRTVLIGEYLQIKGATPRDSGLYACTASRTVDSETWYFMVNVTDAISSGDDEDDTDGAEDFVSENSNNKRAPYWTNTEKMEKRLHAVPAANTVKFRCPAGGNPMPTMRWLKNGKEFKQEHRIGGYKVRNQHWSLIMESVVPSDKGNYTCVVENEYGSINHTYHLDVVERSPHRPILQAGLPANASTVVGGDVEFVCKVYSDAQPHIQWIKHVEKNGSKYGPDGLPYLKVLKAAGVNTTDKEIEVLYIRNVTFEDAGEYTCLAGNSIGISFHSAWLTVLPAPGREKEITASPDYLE

Kd (FGFR4-6xHis) [nM]	Kd (FGFR3-IIIc) [nM]	binding result (FGFR1-IIIb)	Kd (FGFR2-IIIc) [nM]	Kd (FGFR4-Fc) [nM]	Binder
2.8	0.0663	no binding	2.8	–	2B.1.1 (antibody, human IgG1, kappa, V domains shown, Full IgG1/kappa chains) VH: EVQLVESGGGLVQPGGSLRLSCAASGFTFTSTGISWVRQAPGKGLEWVGRYWAWDGSTNYADSVKGRFTISADTSKNTAYLQMNSLRAEDTAVYYCARTYGIYDLYVDYTEYVMDYWGQGTLVTVSS VL: DIQMTQSPSSLSASVGDRVTITCRASQDVDTSLAWYKQKPGKAPKLLIYSASFLYSGVPSRFSGSGSGTDFTLTISSLQPEDFATYYCQQSTGHPQTFGQGTKVEIKR
–	–	–	–	32	Fab fragment of Mab 2B.1.3 (Fab, V domains shown, Fab; also called 2B.1.3 Fab; Fab 2B.1.3) VH: EVQLVESGGGLVQPGGSLRLSCAASGFTFTSTGISWVRQAPGKGLEWVGRTHLGDGSTNYADSVKGRFTISADTSKNTAYLQMNSLRAEDTAVYYCARTYGIYDLYVDYTEYVMDYWGQGTLVTVSS VL: DIQMTQSPSSLSASVGDRVTITCRASQDVDTSLAWYKQKPGKAPKLLIYSASFLYSGVPSRFSGSGSGTDFTLTISSLQPEDFATYYCQQSTGHPQTFGQGTKVEIKR
